Residues, ends and D or L forms follow the SMILES beside them. *: point of attachment. S(CH2)2OCO2(CPT-20-yl) = CC[C@@]1(OC(=O)OCCS*)C(=O)OCc2c1cc1n(c2=O)Cc2cc3ccccc3nc2-1
What was measured:
human RBCs = assay: Red blood cell (RBC) lysis, released hemoglobin; conditions: 72 h
Procedure: Cell death was measured using resazurin, with 0.1% (v/v) Triton X‐100 as a control for 100% cell death. Data points are expressed as mean ± SD for at least two biological replicates. Dose response curves were fitted using [inhibitor] versus response with variable slope, Graphpad Prism v10. […] RBC lysis was determined by measuring released hemoglobin, with 0.1% (v/v) Triton X‐100 as a control for 100% cell lysis. Melittin was included as a membranolytic control. Data points are expressed as mean ± SD for two technical replicates. Dose response curves were fitted using [inhibitor] versus response with variable slope, Graphpad Prism v10. […] CC50 values are expressed as mean (SEM). […]
Red blood cell (RBC) lysis
Human RBCs and serum were obtained from healthy volunteers via the Red Cross Lifeblood,
Brisbane, Australia. RBCs were washed three times with PBS and stored in culture medium (RPMI

[1] = Parallel artificial membrane permeability assay (PAMPA); assay type: in vitro ADME; conditions: 4 h; for % recovered (soluble fractions): combined apical and basolateral fractions; for degradation during PAMPA experiment: cell-free, PBS, 37 °C
Procedure: FIGURE 4 (A) Membrane permeability and cellular uptake of PDCs, scaffold peptides, and CPT. Compounds were added to PAMPA wells (4 μM) and incubated for 4 h. Supernatant from apical and basolateral sides of the membrane were collected and analyzed using LC–MS. The amount in the combined soluble fractions was compared to the starting amount to determine % recovery, and the apparent permeability (Papp) was calculated as before (Sevin et al. [2013]). Data is expressed as mean ± SD from a single experiment with three technical replicates. (B) Internalization/cell membrane association of PDCs 12–14 and PDIP with HT144 cells. Cells were treated with PDIP or PDCs (4 μM) for 1 h, washed to remove extracellular compound, then extracted with 75% (v/v) MeCN in mQH2O (containing 1.75% (v/v) TFA), to recover soluble peptide or PDC from precipitated cell proteins. The relative amount of internalized peptide or PDC was determined by integrating area under the curve (AUC) for the [M + 6H]^6+ m/z peak (for the intact mass) using time of flight–mass spectrometry (see Figure S2). […] Data is expressed as mean ± SD from a single experiment with three technical replicates for each treatment and control and was analyzed with ANOVA (Tukey multiple comparisons; **p < 0.01, *p < 0.05). (C) Detection of intracellular CPT following 6 h treatment of HT144 cells with CPT and PDCs 12 and 14. […] Data is expressed as mean ± SD from a single experiment with three technical replicates for each treatment and was analyzed with ANOVA (Fisher multiple paired comparisons; **p < 0.01, *p < 0.05). TEXT PRINTED IN THE PICTURE: (A) PDIP: % recovered (soluble fractions): 94 | (A) 12: % recovered (soluble fractions): 58 | (A) 14: % recovered (soluble fractions): 33 | (A) 15: % recovered (soluble fractions): 40 | (A) c[A] PDIP: % recovered (soluble fractions): 34 | (A) CPT: % recovered (soluble fractions): 92 […]
For the first assay, the PDCs (12–15), scaffold peptides and CPT (4 μM) were added to the apical side of PAMPA monolayers and incubated for 4 h. […] PDIP, CPT, and PDCs 12 and 14 had high permeability (Papp ≥ 2 × 10^−6 cm/s), highlighting that these PDCs maintain membrane permeability with the CPT cargo attached. […] Reliable permeability data were not obtained for PDC 13 because of poor recovery of the PDC from soluble fractions, and degradation during the 4 h PAMPA experiment. […] Instability of the carbonate linkage within CPT conjugates containing a dipeptide linker has been previously reported (Walker et al. [2002]), highlighting the potential incompatibility of this drug–linker combination for CPT PDCs. Considering the observed degradation of 13 in the cell‐free assay, it is also possible that extracellular degradation occurred during the cytotoxicity assays.
Parallel artificial membrane permeability assay (PAMPA)
PAMPA was performed according to the manufacturer instructions for the BD Gentest pre-coated PAMPA plate system (BD Biosciences), as previously described.16 Briefly, peptides and PDCs (4 μM in PBS) were added to the apical side of PAMPA wells and incubated for 4 h at 37 °C, 5% CO2 with 95% humidity. Soluble fractions were recovered from the apical and basolateral sides, and compound concentration was quantified using a Shimadzu LCMS-2020 instrument with a Phenomenex 5 µm C18 / 300 Å / 150 x 2 mm LC column. Data was collected from three technical replicates for each compound. The % recovery was determined from (combined from apical and basolateral fractions) relative to the starting concentration:
Recovery rate : R (%) = (C஺ ×V஺ +C஻ ×V஻ )× 100 where CA and CB are the apical and basolateral concentrations (µM), VA and VB are the apical and basolateral volumes (mL), and C0 is the initial concentration (µM).
The apparent permeability coefficient (Papp) was calculated using the following equations17 and where A is the membrane surface area (cm2): […]

| SMILES | HC10 (minimal hemolytic concentration) RBC (human RBCs; human RBCs 0.25% v/v) [µM] | concentration that completely lysed the RBCs (human RBCs; human RBCs) [µM] | % recovered (soluble fractions) ([1]; 4 μM) | degradation during PAMPA experiment [1] | Papp at 4 h, 4 μM ([1]; PAMPA, 4 μM, apical to basolateral, read-out: apparent permeability (Papp)) [×10⁻⁶ cm/s] |
| --- | --- | --- | --- | --- | --- |
| CC[C@H](C)[C@H](NC(=O)CN)C(=O)NCC(=O)N[C@@H](C)C(=O)N[C@H](C(=O)N[C@@H](CC(C)C)C(=O)N[C@@H](CCCCN)C(=O)N[C@H](C(=O)N[C@@H](CC(C)C)C(=O)N[C@H](C(=O)N[C@H](C(=O)NCC(=O)N[C@@H](CC(C)C)C(=O)N1CCC[C@H]1C(=O)N[C@@H](C)C(=O)N[C@@H](CC(C)C)C(=O)N[C@H](C(=O)N[C@@H](CO)C(=O)N[C@@H](Cc1c[nH]c2ccccc12)C(=O)N[C@H](C(=O)N[C@@H](CCCCN)C(=O)N[C@@H](CCCNC(=N)N)C(=O)N[C@@H](CCCCN)C(=O)N[C@@H](CCCNC(=N)N)C(=O)N[C@@H](CCC(N)=O)C(=O)N[C@@H](CCC(N)=O)C(N)=O)[C@@H](C)CC)[C@@H](C)CC)[C@@H](C)O)[C@@H](C)O)C(C)C)C(C)C [Melittin] | 1.8 | 8 |  |  |  |
| CC[C@H](C)[C@@H]1NC(=O)[C@H](CCCCN)NC(=O)[C@H](CCCCN)NC(=O)[C@H](Cc2ccc(O)cc2)NC(=O)[C@H](CC(C)C)NC(=O)[C@@H]2CCCN2C(=O)CNC(=O)CNC(=O)[C@@H](NC(=O)CN)CSSC[C@@H](C(=O)N[C@@H](CCC(=O)O)C(=O)N[C@@H](CO)C(N)=O)NC(=O)[C@H](CC(C)C)NC(=O)[C@H](CCCCN)NC(=O)[C@H](CCCCN)NC(=O)[C@H]([C@@H](C)CC)NC(=O)[C@H]([C@@H](C)CC)NC(=O)[C@H](CCCCN)NC(=O)[C@H](CCCCN)NC(=O)[C@H](Cc2ccc(O)cc2)NC(=O)[C@H](CC(C)C)NC(=O)[C@@H]2CCCN2C(=O)[C@H](C)NC(=O)CNC(=O)CNC(=O)[C@H](Cn2cc(COCCC(=O)N[C@H](C(=O)N[C@@H](CCCNC(N)=O)C(=O)Nc3ccc(COC(=O)O[C@]4(CC)C(=O)OCc5c4cc4n(c5=O)Cc5cc6ccccc6nc5-4)cc3)C(C)C)nn2)NC(=O)CNC(=O)CNC(=O)[C@H](CO)NC(=O)[C@H](CCC(=O)O)NC(=O)[C@H](CC(C)C)NC(=O)[C@H](CC(C)C)NC(=O)[C@H](CCCCN)NC(=O)[C@H](CCCCN)NC(=O)[C@H]([C@@H](C)CC)NC1=O [PDC 13] |  |  | poor recovery | degradation |  |
| CC[C@H](C)[C@@H]1NC(=O)[C@H](CCCCN)NC(=O)[C@H](CCCCN)NC(=O)[C@H](Cc2ccc(O)cc2)NC(=O)[C@H](CC(C)C)NC(=O)[C@@H]2CCCN2C(=O)[C@H](C)NC(=O)CNC(=O)CNC(=O)[C@H](CSSCCOC(=O)O[C@]2(CC)C(=O)OCc3c2cc2n(c3=O)Cc3cc4ccccc4nc3-2)NC(=O)CNC(=O)CNC(=O)[C@H](CO)NC(=O)[C@H](CCC(=O)O)NC(=O)[C@H](CC(C)C)NC(=O)[C@H](CC(C)C)NC(=O)[C@H](CCCCN)NC(=O)[C@H](CCCCN)NC(=O)[C@H]([C@@H](C)CC)NC(=O)[C@H]([C@@H](C)CC)NC(=O)[C@H](CCCCN)NC(=O)[C@H](CCCCN)NC(=O)[C@H](Cc2ccc(O)cc2)NC(=O)[C@H](CC(C)C)NC(=O)[C@@H]2CCCN2C(=O)[C@H](C)NC(=O)CNC(=O)CNC(=O)[C@H](CO)NC(=O)CNC(=O)CNC(=O)[C@H](CO)NC(=O)[C@H](CCC(=O)O)NC(=O)[C@H](CC(C)C)NC(=O)[C@H](CC(C)C)NC(=O)[C@H](CCCCN)NC(=O)[C@H](CCCCN)NC(=O)[C@H]([C@@H](C)CC)NC1=O [PDC 15] (cyclo(APLYKKIIKKLLESGGC(S(CH2)2OCO2(CPT-20-yl))GGAPLYKKIIKKLLESGGSGG)) |  |  | 40% | Negligible degradation | ~0.9 |

Source: PMC11747586, “Synthesis and Investigation of Peptide–Drug Conjugates Comprising Camptothecin and a Human Protein‐Derived Cell‐Penetrating Peptide” (Chemical Biology & Drug Design, 2025)
